Assay [1] has as its target T1, human calcitonin receptor (human, UniProt P30988 25-474).
T1 construct: whole, on cells; also called hCTR; hCT
T1 sequence (looked up): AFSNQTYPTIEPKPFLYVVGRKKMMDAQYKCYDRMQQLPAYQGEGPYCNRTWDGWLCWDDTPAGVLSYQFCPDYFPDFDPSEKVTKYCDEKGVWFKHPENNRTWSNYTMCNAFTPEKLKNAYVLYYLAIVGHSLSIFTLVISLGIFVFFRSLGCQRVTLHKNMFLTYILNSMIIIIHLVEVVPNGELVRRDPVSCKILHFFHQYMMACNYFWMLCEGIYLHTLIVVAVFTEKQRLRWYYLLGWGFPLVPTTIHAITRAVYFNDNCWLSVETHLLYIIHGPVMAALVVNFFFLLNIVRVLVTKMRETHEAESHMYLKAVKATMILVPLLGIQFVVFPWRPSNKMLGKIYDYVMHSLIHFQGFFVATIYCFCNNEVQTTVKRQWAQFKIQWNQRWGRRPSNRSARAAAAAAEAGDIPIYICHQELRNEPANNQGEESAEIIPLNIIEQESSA
Briefly: ratio of IC50 at human calcitonin receptor to IC50 at human amylin receptor (SPA competition assays). In a few lines:
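Scintillation proximity competition binding on cell membranes at 35 ng/μL with SPA beads, in 50 mM Hepes pH 7.4, 1 mM CaCl2, 5 mM MgCl₂, 0.1% OA, 0.02% Tween20. Incubated 120 min at 25° C with shaking. IC₅₀ from one-site competition fit.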

Assay [2] deals with T1, human calcitonin receptor. Briefly: SPA competition against 125I-calcitonin, membranes of BHK cells with human calcitonin receptor (Assay VII). The gist of the method: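 BHK hCTR membranes 35 ng/μL + SPA beads 0.05 mg/well; buffer 50 mM Hepes pH 7.4, 1 mM CaCl2, 5 mM MgCl₂, 0.1% OA, 0.02% Tween20. 120 min, 25° C., shaking. Scintillation count; IC50 by one-site binding competition.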

Numbered stars: 1 amine (or outer) side, 2 acyl side, 3 side chain; on linkers, the order of the positions; unused ones are H or OH. Bridge positions count the residues as written; N and C are the ends. Side chains are listed from the residue outwards. Ends that are not written are not given here. * marks the point of attachment. C20 diacid = O=C(O)CCCCCCCCCCCCCCCCCCC(=O)*; γGlu = O=C(O)[C@H](CCC(=O)[*:2])N[*:1]

B1: N^ε1-[(4S)-4-carboxy-4-(19-carboxynonadecanoylamino)butanoyl]-[Asp14,Arg17,Pro21,Pro27,Pro34,Glu35]-h-amylin (peptide)
peptide: K([γGlu-C20 diacid])CNTATCATQRLADFLRHSSPNFGAIPSSTNVGPETY-NH2
modifications: disulfide 2-7; N-terminus assumed
SMILES: CC[C@H](C)[C@H](NC(=O)[C@H](C)NC(=O)CNC(=O)[C@H](Cc1ccccc1)NC(=O)[C@H](CC(N)=O)NC(=O)[C@@H]1CCCN1C(=O)[C@H](CO)NC(=O)[C@H](CO)NC(=O)[C@H](Cc1c[nH]cn1)NC(=O)[C@H](CCCNC(=N)N)NC(=O)[C@H](CC(C)C)NC(=O)[C@H](Cc1ccccc1)NC(=O)[C@H](CC(=O)O)NC(=O)[C@H](C)NC(=O)[C@H](CC(C)C)NC(=O)[C@H](CCCNC(=N)N)NC(=O)[C@H](CCC(N)=O)NC(=O)[C@@H](NC(=O)[C@H](C)NC(=O)[C@@H]1CSSC[C@H](NC(=O)[C@@H](N)CCCCNC(=O)CC[C@H](NC(=O)CCCCCCCCCCCCCCCCCCC(=O)O)C(=O)O)C(=O)N[C@@H](CC(N)=O)C(=O)N[C@@H]([C@@H](C)O)C(=O)N[C@@H](C)C(=O)N[C@@H]([C@@H](C)O)C(=O)N1)[C@@H](C)O)C(=O)N1CCC[C@H]1C(=O)N[C@@H](CO)C(=O)N[C@@H](CO)C(=O)N[C@H](C(=O)N[C@@H](CC(N)=O)C(=O)N[C@H](C(=O)NCC(=O)N1CCC[C@H]1C(=O)N[C@@H](CCC(=O)O)C(=O)N[C@H](C(=O)N[C@@H](Cc1ccc(O)cc1)C(N)=O)[C@@H](C)O)C(C)C)[C@@H](C)O
The IC50 is the concentration needed to halve the response being measured. Consider B1, for which the “Ratio hCT/hAmylin binding” value in assay [1] was found to be 16.7. Further, in assay [2], the 50% inhibitory concentration (IC50) came out at 3.27 nM.

On to K([γGlu-C20 diacid])CNTATCATQRLAEFLRHSSPNFGAIPSSTNVGPHTY-NH2 (disulfide 2-7), for which the “Ratio hCT/hAmylin binding” value in assay [1] stood at 21.2. Moreover, the IC50 in assay [2] was 3.8 nM.

B2: N^ε1-[(4S)-4-carboxy-4-(19-carboxynonadecanoylamino)butanoyl]-[Glu14,Arg17,Pro21,Pro27,His35]-h-amylin (peptide)
peptide: K([γGlu-C20 diacid])CNTATCATQRLAEFLRHSSPNFGAIPSSTNVGSHTY-NH2
modifications: disulfide 2-7; N-terminus assumed
SMILES: CC[C@H](C)[C@H](NC(=O)[C@H](C)NC(=O)CNC(=O)[C@H](Cc1ccccc1)NC(=O)[C@H](CC(N)=O)NC(=O)[C@@H]1CCCN1C(=O)[C@H](CO)NC(=O)[C@H](CO)NC(=O)[C@H](Cc1c[nH]cn1)NC(=O)[C@H](CCCNC(=N)N)NC(=O)[C@H](CC(C)C)NC(=O)[C@H](Cc1ccccc1)NC(=O)[C@H](CCC(=O)O)NC(=O)[C@H](C)NC(=O)[C@H](CC(C)C)NC(=O)[C@H](CCCNC(=N)N)NC(=O)[C@H](CCC(N)=O)NC(=O)[C@@H](NC(=O)[C@H](C)NC(=O)[C@@H]1CSSC[C@H](NC(=O)[C@@H](N)CCCCNC(=O)CC[C@H](NC(=O)CCCCCCCCCCCCCCCCCCC(=O)O)C(=O)O)C(=O)N[C@@H](CC(N)=O)C(=O)N[C@@H]([C@@H](C)O)C(=O)N[C@@H](C)C(=O)N[C@@H]([C@@H](C)O)C(=O)N1)[C@@H](C)O)C(=O)N1CCC[C@H]1C(=O)N[C@@H](CO)C(=O)N[C@@H](CO)C(=O)N[C@H](C(=O)N[C@@H](CC(N)=O)C(=O)N[C@H](C(=O)NCC(=O)N[C@@H](CO)C(=O)N[C@@H](Cc1c[nH]cn1)C(=O)N[C@H](C(=O)N[C@@H](Cc1ccc(O)cc1)C(N)=O)[C@@H](C)O)C(C)C)[C@@H](C)O
As for B2, the “Ratio hCT/hAmylin binding” value in assay [1] was determined as 26.4. For the same molecule, in assay [2], the IC50 was found to be 26.1 nM.

B3: N^ε1-[(4S)-4-carboxy-4-(19-carboxynonadecanoylamino)butanoyl]-[His14,Arg17,Pro21,Pro27,Pro31,Pro34]-h-amylin (peptide)
peptide: K([γGlu-C20 diacid])CNTATCATQRLAHFLRHSSPNFGAIPSSTPVGPNTY-NH2
modifications: disulfide 2-7; N-terminus assumed
SMILES: CC[C@H](C)[C@H](NC(=O)[C@H](C)NC(=O)CNC(=O)[C@H](Cc1ccccc1)NC(=O)[C@H](CC(N)=O)NC(=O)[C@@H]1CCCN1C(=O)[C@H](CO)NC(=O)[C@H](CO)NC(=O)[C@H](Cc1c[nH]cn1)NC(=O)[C@H](CCCNC(=N)N)NC(=O)[C@H](CC(C)C)NC(=O)[C@H](Cc1ccccc1)NC(=O)[C@H](Cc1c[nH]cn1)NC(=O)[C@H](C)NC(=O)[C@H](CC(C)C)NC(=O)[C@H](CCCNC(=N)N)NC(=O)[C@H](CCC(N)=O)NC(=O)[C@@H](NC(=O)[C@H](C)NC(=O)[C@@H]1CSSC[C@H](NC(=O)[C@@H](N)CCCCNC(=O)CC[C@H](NC(=O)CCCCCCCCCCCCCCCCCCC(=O)O)C(=O)O)C(=O)N[C@@H](CC(N)=O)C(=O)N[C@@H]([C@@H](C)O)C(=O)N[C@@H](C)C(=O)N[C@@H]([C@@H](C)O)C(=O)N1)[C@@H](C)O)C(=O)N1CCC[C@H]1C(=O)N[C@@H](CO)C(=O)N[C@@H](CO)C(=O)N[C@H](C(=O)N1CCC[C@H]1C(=O)N[C@H](C(=O)NCC(=O)N1CCC[C@H]1C(=O)N[C@@H](CC(N)=O)C(=O)N[C@H](C(=O)N[C@@H](Cc1ccc(O)cc1)C(N)=O)[C@@H](C)O)C(C)C)[C@@H](C)O
For the molecule B3, the “Ratio hCT/hAmylin binding” value in assay [1] worked out at 24.8. Moreover, in assay [2], the IC50 is 2.04 nM.

Take K([γGlu-γGlu-C20 diacid])CNTATCATQRLAEFLRHSSPNFGAIPSSTNVGPHTY-NH2 (disulfide 2-7 (inferred)): the “Ratio hCT/hAmylin binding” value in assay [1] was 27.3. In assay [2], the IC50 was 10.3 nM.

B4: N^ε1-[(4S)-4-carboxy-4-[[(4S)-4-carboxy-4-(19-carboxynonadecanoylamino)butanoyl]amino]butanoyl]-[Asp14,Arg17,Pro21,Pro27,Pro34,Arg35]-h-amylin (peptide)
peptide: K([γGlu-γGlu-C20 diacid])CNTATCATQRLADFLRHSSPNFGAIPSSTNVGPRTY-NH2
modifications: disulfide 2-7; N-terminus assumed
SMILES: CC[C@H](C)[C@H](NC(=O)[C@H](C)NC(=O)CNC(=O)[C@H](Cc1ccccc1)NC(=O)[C@H](CC(N)=O)NC(=O)[C@@H]1CCCN1C(=O)[C@H](CO)NC(=O)[C@H](CO)NC(=O)[C@H](Cc1c[nH]cn1)NC(=O)[C@H](CCCNC(=N)N)NC(=O)[C@H](CC(C)C)NC(=O)[C@H](Cc1ccccc1)NC(=O)[C@H](CC(=O)O)NC(=O)[C@H](C)NC(=O)[C@H](CC(C)C)NC(=O)[C@H](CCCNC(=N)N)NC(=O)[C@H](CCC(N)=O)NC(=O)[C@@H](NC(=O)[C@H](C)NC(=O)[C@@H]1CSSC[C@H](NC(=O)[C@@H](N)CCCCNC(=O)CC[C@H](NC(=O)CC[C@H](NC(=O)CCCCCCCCCCCCCCCCCCC(=O)O)C(=O)O)C(=O)O)C(=O)N[C@@H](CC(N)=O)C(=O)N[C@@H]([C@@H](C)O)C(=O)N[C@@H](C)C(=O)N[C@@H]([C@@H](C)O)C(=O)N1)[C@@H](C)O)C(=O)N1CCC[C@H]1C(=O)N[C@@H](CO)C(=O)N[C@@H](CO)C(=O)N[C@H](C(=O)N[C@@H](CC(N)=O)C(=O)N[C@H](C(=O)NCC(=O)N1CCC[C@H]1C(=O)N[C@@H](CCCNC(=N)N)C(=O)N[C@H](C(=O)N[C@@H](Cc1ccc(O)cc1)C(N)=O)[C@@H](C)O)C(C)C)[C@@H](C)O
notes: also called compound 130
As for B4, the “Ratio hCT/hAmylin binding” value in assay [1] was determined as 280. In addition, the half-maximal inhibitory concentration (IC50) in assay [2] was 127 nM.

In the case of K([γGlu-γGlu-C20 diacid])CNTATCATQRLADFLRHSSPNFGAIPSSTNVGPETY-NH2 (disulfide 2-7), the “Ratio hCT/hAmylin binding” value in assay [1] was 49.8. Also, the half-maximal inhibitory concentration (IC50) in assay [2] turned out to be 8.56 nM.

B5: N^ε1-[(4S)-4-carboxy-4-[[(4S)-4-carboxy-4-(19-carboxynonadecanoylamino)butanoyl]amino]butanoyl]-[Arg17,Pro21,Pro27,Pro31,Pro34,Arg35]-h-amylin (peptide)
peptide: K([γGlu-γGlu-C20 diacid])CNTATCATQRLANFLRHSSPNFGAIPSSTPVGPRTY-NH2
modifications: disulfide 2-7; N-terminus assumed
SMILES: CC[C@H](C)[C@H](NC(=O)[C@H](C)NC(=O)CNC(=O)[C@H](Cc1ccccc1)NC(=O)[C@H](CC(N)=O)NC(=O)[C@@H]1CCCN1C(=O)[C@H](CO)NC(=O)[C@H](CO)NC(=O)[C@H](Cc1c[nH]cn1)NC(=O)[C@H](CCCNC(=N)N)NC(=O)[C@H](CC(C)C)NC(=O)[C@H](Cc1ccccc1)NC(=O)[C@H](CC(N)=O)NC(=O)[C@H](C)NC(=O)[C@H](CC(C)C)NC(=O)[C@H](CCCNC(=N)N)NC(=O)[C@H](CCC(N)=O)NC(=O)[C@@H](NC(=O)[C@H](C)NC(=O)[C@@H]1CSSC[C@H](NC(=O)[C@@H](N)CCCCNC(=O)CC[C@H](NC(=O)CC[C@H](NC(=O)CCCCCCCCCCCCCCCCCCC(=O)O)C(=O)O)C(=O)O)C(=O)N[C@@H](CC(N)=O)C(=O)N[C@@H]([C@@H](C)O)C(=O)N[C@@H](C)C(=O)N[C@@H]([C@@H](C)O)C(=O)N1)[C@@H](C)O)C(=O)N1CCC[C@H]1C(=O)N[C@@H](CO)C(=O)N[C@@H](CO)C(=O)N[C@H](C(=O)N1CCC[C@H]1C(=O)N[C@H](C(=O)NCC(=O)N1CCC[C@H]1C(=O)N[C@@H](CCCNC(=N)N)C(=O)N[C@H](C(=O)N[C@@H](Cc1ccc(O)cc1)C(N)=O)[C@@H](C)O)C(C)C)[C@@H](C)O
Turning to B5, the “Ratio hCT/hAmylin binding” value in assay [1] came out at 48.6. The half-inhibitory concentration (IC50) in assay [2] came out at 42.8 nM.

The values above are taken from US20140087995A1 (published 2014).
